Experimental data as given in the supplement of paper PMC11316812.
± gives the standard deviation of the averaged measurements.

Legend:
[1] = tested on: hTERT-HMEC; assay: percentage of EdU-negative (G0-arrested) nuclei per well, 72 h; higher = more G0 arrest; details: reference: sequence is the full UniProt precursor, the tested protein was the secreted form or ectodomain
[2] = tested on: MCF7; assay: as above; details: reference: sequence is the full UniProt precursor, the tested protein was the secreted form or ectodomain
[3] = protein concentration 0.0225 µM
[4] = protein concentration 0.0289325 µM
[5] = protein concentration 0.289325 µM
[6] = protein concentration 0.03125 µM
[7] = protein concentration 0.3125 µM
[8] = protein concentration 0.00525 µM
[9] = protein concentration 0.0525 µM
[10] = protein concentration 0.00625 µM
[11] = protein concentration 0.0625 µM
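Further: secreted proteins added to cultured cells, EdU pulse at the end, nuclei found by Hoechst imaging, EdU status from nuclear versus surrounding ring intensity ratio, PBS as neutral control.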

MLPLLLLPLLWGGSLQEKPVYELQVQKSVTVQEGLCVLVPCSFSYPWRSWYSSPPLYVYWFRDGEIPYYAEVVATNNPDRRVKPETQGRFRLLGDVQKKNCSLSIGDARMEDTGSYFFRVERGRDVKYSYQQNKLNLEVTALIEKPDIHFLEPLESGRPTRLSCSLPGSCEAGPPLTFSWTGNALSPLDPETTRSSELTLTPRPEDHGTNLTCQMKRQGAQVTTERTVQLNVSYAPQTITIFRNGIALEILQNTSYLPVLEGQALRLLCDAPSNPPAHLSWFQGSPALNATPISNTGILELRRVRSAEEGGFTCRAQHPLGFLQIFLNLSVYSLPQLLGPSCSWEAEGLHCRCSFRARPAPSLCWRLEEKPLEGNSSQGSFKVNSSSAGPWANSSLILHGGLSSDLKVSCKAWNIYGSQSGSVLLLQGRSNLGTGVVPAALGGAGVMALLCICLCLIFFLIVKARRKQAAGRPEKMDDEDPIMGTITSGSRKKPWPDSPGDQASPPGDAPPLEEQKELHYASLSFSEMKSREPKDQEAPSTTEYSEIKTSK
percentage of EdU-negative [1, 3]: 5.12 ± 0.15% | percentage of EdU-negative ([1]; protein concentration 0.225 µM): 5.64 ± 1% | percentage of EdU-negative [2, 3]: 25 ± 0.77% | percentage of EdU-negative ([2]; protein concentration 0.225 µM): 29.26 ± 0.077%

MNQVTIQWDAVIALYILFSWCHGGITNINCSGHIWVEPATIFKMGMNISIYCQAAIKNCQPRKLHFYKNGIKERFQITRINKTTARLWYKNFLEPHASMYCTAECPKHFQETLICGKDISSGYPPDIPDEVTCVIYEYSGNMTCTWNAGKLTYIDTKYVVHVKSLETEEEQQYLTSSYINISTDSLQGGKKYLVWVQAANALGMEESKQLQIHLDDIVIPSAAVISRAETINATVPKTIIYWDSQTTIEKVSCEMRYKATTNQTWNVKEFDTNFTYVQQSEFYLEPNIKYVFQVRCQETGKRYWQPWSSLFFHKTPETVPQVTSKAFQHDTWNSGLTVASISTGHLTSDNRGDIGLLLGMIVFAVMLSILSLIGIFNRSFRTGIKRRILLLIPKWLYEDIPNMKNSNVVKMLQENSELMNNNSSEQVLYVDPMITEIKEIFIPEHKPTDYKKENTGPLETRDYPQNSLFDNTTVVYIPDLNTGYKPQISNFLPEGSHLSNNNEITSLTLKPPVDSLDSGNNPRLQKHPNFAFSVSSVNSLSNTIFLGELSLILNQGECSSPDIQNSVEEETTMLLENDSPSETIPEQTLLPDEFVSCLGIVNEELPSINTYFPQNILESHFNRISLLEK [Q5VWK5]
percentage of EdU-negative [1, 3]: 6.46 ± 1.6% | percentage of EdU-negative ([1]; protein concentration 0.225 µM): 15.8 ± 1.4% | percentage of EdU-negative [2, 3]: 23.7 ± 1.1% | percentage of EdU-negative ([2]; protein concentration 0.225 µM): 29.2 ± 0.53%

MGPLPAPSCTQRITWKGLLLTASLLNFWNPPTTAEVTIEAQPPKVSEGKDVLLLVHNLPQNLPGYFWYKGEMTDLYHYIISYIVDGKIIIYGPAYSGRETVYSNASLLIQNVTRKDAGTYTLHIIKRGDETREEIRHFTFTLYLETPKPYISSSNLNPREAMEAVRLICDPETLDASYLWWMNGQSLPVTHRLQLSKTNRTLYLFGVTKYIAGPYECEIRNPVSASRSDPVTLNLLPKLPIPYITINNLNPRENKDVLAFTCEPKSENYTYIWWLNGQSLPVSPGVKRPIENRILILPSVTRNETGPYQCEIRDRYGGLRSNPVILNVLYGPDLPRIYPSFTYYRSGENLDLSCFTESNPPAEYFWTINGKFQQSGQKLFIPQITRNHSGLYACSVHNSATGKEISKSMTVKVSGPCHGDLTESQS
percentage of EdU-negative [1, 4]: 4.85 ± 0.41% | percentage of EdU-negative [1, 5]: 4.97 ± 0.19% | percentage of EdU-negative [2, 4]: 25.2 ± 0.61% | percentage of EdU-negative [2, 5]: 26.3 ± 0.9%

MPPSGPRGTLLLLPLLLLLLLRAVLAVPLERGAPNKEETPATESPDTGLYYHRYLQEVIDVLETDGHFREKLQAANAEDIKSGKLSRELDFVSHHVRTKLDELKRQEVSRLRMLLKAKMDAEQDPNVQVDHLNLLKQFEHLDPQNQHTFEARDLELLIQTATRDLAQYDAAHHEEFKRYEMLKEHERRRYLESLGEEQRKEAERKLEEQQRRHREHPKVNVPGSQAQLKEVWEELDGLDPNRFNPKTFFILHDINSDGVLDEQELEALFTKELEKVYDPKNEEDDMREMEEERLRMREHVMKNVDTNQDRLVTLEEFLASTQRKEFGDTGEGWETVEMHPAYTEEELRRFEEELAAREAELNAKAQRLSQETEALGRSQGRLEAQKRELQQAVLHMEQRKQQQQQQQGHKAPAAHPEGQLKFHPDTDDVPVPAPAGDQKEVDTSEKKLLERLPEVEVPQHL
percentage of EdU-negative [1, 6]: 4.94 ± 0.37% | percentage of EdU-negative [1, 7]: 7.16 ± 0.53% | percentage of EdU-negative [2, 6]: 24.1 ± 0.73% | percentage of EdU-negative [2, 7]: 26.9 ± 1.6%

MEDLCVANTLFALNLFKHLAKASPTQNLFLSPWSISSTMAMVYMGSRGSTEDQMAKVLQFNEVGANAVTPMTPENFTSCGFMQQIQKGSYPDAILQAQAADKIHSSFRSLSSAINASTGNYLLESVNKLFGEKSASFREEYIRLCQKYYSSEPQAVDFLECAEEARKKINSWVKTQTKGKIPNLLPEGSVDGDTRMVLVNAVYFKGKWKTPFEKKLNGLYPFRVNSAQRTPVQMMYLREKLNIGYIEDLKAQILELPYAGDVSMFLLLPDEIADVSTGLELLESEITYDKLNKWTSKDKMAEDEVEVYIPQFKLEEHYELRSILRSMGMEDAFNKGRANFSGMSERNDLFLSEVFHQAMVDVNEEGTEAAAGTGGVMTGRTGHGGPQFVADHPFLFLIMHKITNCILFFGRFSSP
percentage of EdU-negative [1, 8]: 5.431 ± 0.036% | percentage of EdU-negative [1, 9]: 5.26 ± 1.3% | percentage of EdU-negative [2, 8]: 24.7 ± 0.25% | percentage of EdU-negative [2, 9]: 27.383 ± 0.014%

MLRAGWLRGAAALALLLAARVVAAFEPITVGLAIGAASAITGYLSYNDIYCRFAECCREERPLNASALKLDLEEKLFGQHLATEVIFKALTGFRNNKNPKKPLTLSLHGWAGTGKNFVSQIVAENLHPKGLKSNFVHLFVSTLHFPHEQKIKLYQDQLQKWIRGNVSACANSVFIFDEMDKLHPGIIDAIKPFLDYYEQVDGVSYRKAIFIFLSNAGGDLITKTALDFWRAGRKREDIQLKDLEPVLSVGVFNNKHSGLWHSGLIDKNLIDYFIPFLPLEYRHVKMCVRAEMRARGSAIDEDIVTRVAEEMTFFPRDEKIYSDKGCKTVQSRLDFH
percentage of EdU-negative ([1]; protein concentration 0.005 µM): 5.1 ± 0.71% | percentage of EdU-negative ([1]; protein concentration 0.05 µM): 6.38 ± 0.16% | percentage of EdU-negative ([2]; protein concentration 0.005 µM): 27.8 ± 1% | percentage of EdU-negative ([2]; protein concentration 0.05 µM): 24.9 ± 1.3%

MKVWLLLGLLLVHEALEDVTGQHLPKNKRPKEPGENRIKPTNKKVKPKIPKMKDRDSANSAPKTQSIMMQVLDKGRFQKPAATLSLLAGQTVELRCKGSRIGWSYPAYLDTFKDSRLSVKQNERYGQLTLVNSTSADTGEFSCWVQLCSGYICRKDEAKTGSTYIFFTEKGELFVPSPSYFDVVYLNPDRQAVVPCRVTVLSAKVTLHREFPAKEIPANGTDIVYDMKRGFVYLQPHSEHQGVVYCRAEAGGRSQISVKYQLLYVAVPSGPPSTTILASSNKVKSGDDISVLCTVLGEPDVEVEFTWIFPGQKDERPVTIQDTWRLIHRGLGHTTRISQSVITVEDFETIDAGYYICTAQNLQGQTTVATTVEFS
percentage of EdU-negative [1, 10]: 4.49 ± 0.2% | percentage of EdU-negative [1, 11]: 5.36 ± 0.45% | percentage of EdU-negative [2, 10]: 27.9 ± 0.57% | percentage of EdU-negative [2, 11]: 29.4 ± 1%
